Measured values taken from patent US20160228563A1 (USTAV ORGANICKE CHEMIE A BIOCHEMIE AKADEMIE VED CR V V I, published 2016).
Square brackets hold non-standard residues; d marks the D form. * marks the point of attachment. 1Nal = N[C@@H](Cc1cccc2ccccc12)C(=O)O; Stearoyl = CCCCCCCCCCCCCCCCCC(=O)*; Palmitoyl = CCCCCCCCCCCCCCCC(=O)*; Nle = CCCC[C@H](N)C(=O)O

T1: rat PrRP receptor (GPR10) in RC-4B/C rat pituitary cells (rat, UniProt Q64121 1-370)
T1 construct: whole, on cells; receptor as expressed by RC-4B/C cells (ATCC); also called rat receptor; rat RC-4B/C cell receptor
T1 sequence (looked up): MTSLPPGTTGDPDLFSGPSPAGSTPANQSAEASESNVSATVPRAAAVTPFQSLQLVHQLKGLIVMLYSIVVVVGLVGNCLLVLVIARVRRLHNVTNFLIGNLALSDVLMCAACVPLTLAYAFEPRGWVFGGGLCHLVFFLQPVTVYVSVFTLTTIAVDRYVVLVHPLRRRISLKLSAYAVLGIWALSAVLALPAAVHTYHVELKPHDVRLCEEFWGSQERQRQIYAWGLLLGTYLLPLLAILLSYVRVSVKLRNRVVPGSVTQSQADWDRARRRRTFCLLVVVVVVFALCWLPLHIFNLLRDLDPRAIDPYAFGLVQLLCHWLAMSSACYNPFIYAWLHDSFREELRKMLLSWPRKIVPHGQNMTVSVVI

T2: human PrRP receptor GPR10 transfected in CHO cells (human, UniProt P49683 1-370)
T2 construct: whole, on cells; also called GPR10 human receptor; human GPR10 receptor
T2 sequence (looked up): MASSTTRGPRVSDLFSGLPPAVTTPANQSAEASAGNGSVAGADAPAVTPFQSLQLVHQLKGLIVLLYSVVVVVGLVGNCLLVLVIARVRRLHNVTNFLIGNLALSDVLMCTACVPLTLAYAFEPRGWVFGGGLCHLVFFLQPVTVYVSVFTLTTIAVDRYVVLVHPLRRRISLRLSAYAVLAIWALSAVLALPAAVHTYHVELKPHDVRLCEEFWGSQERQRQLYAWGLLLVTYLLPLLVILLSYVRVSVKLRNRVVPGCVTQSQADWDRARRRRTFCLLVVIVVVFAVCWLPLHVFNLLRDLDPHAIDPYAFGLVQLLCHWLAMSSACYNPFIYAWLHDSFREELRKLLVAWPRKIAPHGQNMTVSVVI

B1: PrRP analog no. 12 (peptide)
peptide: Palmitoyl-SRAHQHS[Nle]ETRTPDINPAWYTGRGIRPVGR[1Nal]-NH2
B2: PrRP analog no. 9 (peptide)
peptide: Stearoyl-SRAHQHS[Nle]ETRTPDINPAWYTGRGIRPVGRF-NH2

Key:
[1] = molecular target: T1, rat PrRP receptor (GPR10) in RC-4B/C …; assay: 125I-rat PrRP31 displacement, RC-4B/C cells
Method: (§1) Competitive binding experiments were performed according to Motulsky and Neubig (Motulsky, A., et al., “Analyzing radioligand binding data,” Curr Protoc Neurosci, Chapter 7, Unit 7.5, 2002). Binding experiments were conducted with rat pituitary cells, and with Chinese Hamster Ovary (CHO) cells as follows:
The rat pituitary cell line RC-4B/C (ATCC, Manassas, USA) was grown on 24-well plates which had their bottom coated with polyethyleneimine. The cells were grown to the optimal density of 300-450 thousand cells per well.
(§2) Plates were incubated for 60 minutes at room temperature. After incubation, the cells were solubilized in 0.1 mol/l solution of NaOH, and the radioactivity bound to the cells was counted using a γ-counter. The experiments were performed in duplicate, and repeated at least three times.

[2] = molecular target: T2, human PrRP receptor GPR10 transfected …; assay: 125I-human PrRP31 displacement, CHO-GPR10 cells
Method: as §1
CHO cells transfected with human PrRP receptor GPR10 (Perkin Elmer, USA) were grown on 24-well plates coated with polyethyleneimine. The cells were grown to the optimal density of 40-80 thousand cells per well.
as §2

Binder | % of PrRP31 [1] | % of PrRP31 [2]
B1 | 111% | –
B2 | – | 7%
